For assay [1], the target named is T1, human IGFBP7 recombinant protein (UniProt Q16270 27-282, biotinylated with EZ-LINK NHS-PEG4 biotin in the BLI assays (sites not given)).
T1 chain: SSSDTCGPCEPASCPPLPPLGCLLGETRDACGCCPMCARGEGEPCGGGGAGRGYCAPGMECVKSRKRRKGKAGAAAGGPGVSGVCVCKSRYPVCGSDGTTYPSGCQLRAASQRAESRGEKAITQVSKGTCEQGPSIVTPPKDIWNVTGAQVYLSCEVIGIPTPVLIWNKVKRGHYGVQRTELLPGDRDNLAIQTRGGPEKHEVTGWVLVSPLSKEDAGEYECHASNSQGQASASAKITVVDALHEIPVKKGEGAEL
Put plainly: BLI.

For assay [2], the target named is T2, human IGFBP7 recombinant protein (human, UniProt Q16270 27-282, biotinylated with EZ-LINK NHS-PEG4 biotin in the BLI assays (sites not given)).
T2 construct: Soluble protein used for ELISA coating and, biotinylated, on streptavidin biosensors (Octet); also called hIGFBP7; biotinylated IGFBP7 protein
T2 sequence: T1 chain
Put plainly: BLI (Octet QKe), biotinylated IGFBP7 on streptavidin biosensors (FIG. 9). Here is the method: (§1) The binding affinity of anti-IGFBP7 nanobody Fc-fusion constructs (e.g., VHH-Fc-fusion constructs) were determined with bio-layer interferometry (BLI) using Octet QKe (Fortebio). Human, mouse, and cynomolgus IGFBP7 were biotinylated using EZ-LINK NHS-PEG4 biotin (Thermo Fisher Scientific). Streptavidin biosensors (ForteBio) were used to load biotinylated IGFBP7 protein (300 seconds in 5 μg/mL). Baseline was stabilized for 60 seconds in 1× kinetics buffer (ForteBio) before anti-IGFBP7 Fc-fucion proteins (serial dilution) were allowed to associate for 300 seconds with captured hIGFBP7 or mIGFBP7. Then the sensors were dissociated in 1× kinetics buffer for 600 seconds. Data analysis was performed on ForteBio Data Analysis HT 11.1 software.

Assay [3] deals with T3, mouse IGFBP7 recombinant protein (mouse, UniProt Q61581 26-281, limits assumed, biotinylated with EZ-LINK NHS-PEG4 biotin in the BLI assays (sites not given)).
T3 construct: Soluble protein in ELISA and BLI; also called mIGFBP7
T3 sequence (looked up): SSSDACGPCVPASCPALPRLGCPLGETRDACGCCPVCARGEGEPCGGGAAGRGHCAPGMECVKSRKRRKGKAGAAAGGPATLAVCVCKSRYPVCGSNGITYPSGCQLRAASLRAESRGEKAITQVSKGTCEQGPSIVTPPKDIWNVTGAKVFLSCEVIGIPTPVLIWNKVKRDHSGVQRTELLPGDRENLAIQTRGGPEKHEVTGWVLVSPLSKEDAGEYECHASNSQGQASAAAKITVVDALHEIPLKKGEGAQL
Put plainly: BLI (Octet QKe), biotinylated IGFBP7 on streptavidin biosensors (FIG. 10). Here is the method: as §1
(In BLI a coated tip is dipped into the sample, and binding shifts an interference pattern.)

The target in assay [4] is T4, mouse IGFBP7 recombinant protein (mouse, UniProt Q61581 26-281, biotinylated with EZ-LINK NHS-PEG4 biotin in the BLI assays (sites not given)).
T4 chain: T3 sequence (looked up)
The assay can be described thus: BLI.

The target of assay [5] is T4, mouse IGFBP7 recombinant protein. Put plainly: BLI.
Assay [6] deals with T1, human IGFBP7 recombinant protein. Put plainly: BLI.
For assay [7], the target named is T5, cynomolgus IGFBP7 recombinant protein (cynomolgus).
T5 chain: T1 chain with S13A, E215D
Put plainly: BLI.

For assay [8], the target named is T6, mouse IGFBP7 displayed on cells (HEK293T or CHO-K1) (mouse, UniProt Q61581 26-281).
T6 construct: whole, on cells;domain: CD80 transmembrane domain; also called mIGFBP7; mIGFBP7-HEK cells; not shown: linker; CD80 transmembrane domain
T6 sequence (looked up): T3 sequence (looked up)
Put plainly: flow cytometry on mouse IGFBP7 displaying HEK293T cells, nanobody 10 ug/ml, APC anti-HIS detection. Here is the method:
(§2) Human IGFBP7 and mouse IGFBP7 displaying HEK293T cells were detached by incubation with TrypLE reagents (Thermos Fisher), which preserves the integrity of IGFBP7 on the cell surface. Then the cells were incubated with anti-IGFBP7 nanobodies at 10 μg/ml for 30 minutes in 4° C. After washing by FACS buffer, the cells were incubated with APC conjugated anti-HIS antibodies (Biolegend) for 30 minutes in 4° C. After washing by FACS buffer twice, the samples were acquired in NovoCyte Flow Cytometer and analyzed by NovoExpress software.

Assay [9] has as its target T2, human IGFBP7 recombinant protein. Put plainly: ELISA.
Assay [10] has as its target T3, mouse IGFBP7 recombinant protein. Put plainly: ELISA. A general note: ELISA stands for enzyme-linked immunosorbent assay.
Assay [11] has as its target T7, human IGFBP7 displayed on HEK293T cells (human, UniProt Q16270 27-282).
T7 construct: domain: CD80 transmembrane domain; signal peptide stated as residues 1-26; also called hIGFBP7; hIGFBP7-HEK cells; not shown: linker; CD80 transmembrane domain
T7 sequence: T1 chain
Put plainly: flow cytometry on human IGFBP7 displaying HEK293T cells, nanobody 10 ug/ml, APC anti-HIS detection. The procedure:
as §2

Assay [12] deals with T4, mouse IGFBP7 recombinant protein. The assay can be described thus: BLI.
The target in assay [13] is T1, human IGFBP7 recombinant protein. Put plainly: BLI.
Assay [14] has as its target T8, His-tagged human IGFBP7 recombinant protein (human, UniProt Q16270 27-282).
T8 construct: not shown: His tag
T8 sequence: T1 chain
Put plainly: flow cytometry blockade assay: nanobody 50 ug/mL pre-incubated with His-tagged human IGFBP7 1 ug/mL, then human CD93 CHO cells (FIG. 14). The procedure: Anti-IGFBP7 nanobodies and nanobody-Fc fusions (50 μg/mL) generated in previous examples was incubated with His-tagged human IGFBP7 recombinant protein (1 μg/mL) for 30 minutes in 4° C. Human CD93 expressing CHO cells (1×10⁵ per well) were treated the mixture for 30 minutes at 4° C. Then the cells were washed with FACS buffer and incubated with anti-IGFBP7 monoclonal rabbit antibody (Sino Biological Inc, Catalog #13100-R003) at 1 μg/mL for 30 minutes in 4° C. After incubation, the cells were washed with FACS buffer and incubated with PE-conjugated anti-rabbit IgG antibody ([…]) for 30 minutes in 4° C. After washing with FACS buffer twice, the samples were analyzed and data acquired in NovoCyte Flow.

Changes are numbered by the printed parent chain. Where two headings read alike, the source gives them in different places. Where only a bound is given, the exact number is not on record here.

B1: A1-mIgG1 nanobody Fc-fusion (Fc fusion)
chain: VQLQESGGGLVQAGGSLRLSCAASGSLFAIDKWGWYRQVAGNERELVAWRYSPVSINYGDSVKGRFTVSGDSSRKRVYLQMNSLKPDDTAVYRCAAVISGAWYWGQGTQVTVSS
notes: VHH fused with mIgG1 Fc fragment, expressed in Expi293 cells; also called monospecific A1-mIgG1; not shown: mouse IgG1 Fc fragment (mIgG1 Fc)
Consider B1, for which the dissociation constant (Kd) (usually the free concentration of one partner at which half of the binding sites on the other are occupied at equilibrium, for simple one-to-one binding) came to 3.82 nM in assay [1]; 25.8 nM in assay [4]; 25.8 nM in assay [5]; 3.82 nM in assay [6]; 3.19 nM in assay [7]. For the same molecule, the binding result in [2] and in assay [3] was “binds” each time.

B2: anti-IGFBP7 nanobody A01 (VHH)
VHH: B1 chain
notes: Llama nanobody expressed in E. coli as His6-tagged protein; also called A1; A1 VHH; not shown: His6 tag
With B2, the binding result in assay [8], in [9], in assay [10] and in assay [11] was “binds” throughout.

B3: anti-IGFBP7 nanobody F12 (VHH)
VHH: VQLQESGGGLVQPGGSLRLSCAASGFTFSINTYLWYRQPPGKQREFVAAITSGGSINYADSVKGRFTISRDNAKKTVYLQMNSLKPEDTAVYVCNIKAHPNPWGFDNDYWGQGTQVTVSS
notes: Llama nanobody expressed in E. coli as His6-tagged protein; not shown: His6 tag
In the case of B3, in assay [11], the binding result is recorded as “binds”.

B4: bispecific anti-IGFBP7 nanobody Fc-fusion construct A1D4-mIgG2a (bispecific antibody)
chain: VQLQESGGGLVQAGGSLRLSCAASGSLFAIDKWGWYRQVAGNERELVAWRYSPVSINYGDSVKGRFTVSGDSSRKRVYLQMNSLKPDDTAVYRCAAVISGAWYWGQGTQVTVSSVQLQESGGGLVQTGGSLRLSCAASGRSFTFSSYAMGWFRHAPGKEREFLTAITWSGDYTYYTDSVKGRSTISRDNAKNTVYLQLNNLKPEDTAVYYCAAKFSQVSAFFATVSEYEYWGQGTQVTVSS
With B4, the dissociation constant Kd stood at 0.902 nM in [1]; 1.07 nM in assay [4]; 1.07 nM in assay [5]; 0.902 nM in assay [6]; 0.939 nM in [7].

B5: A4-mIgG2a nanobody Fc-fusion (Fc fusion)
chain: VQLQESGGGLVQPGGSLRLSCAASGTFTINTYLWYRQPPGKQREFVAAITRGGSINYADSVKGRFTISRDNAKKTVYLQMNSLKPEDTAVYVCNIKAHPNPWGFDNDYWGQGTQVTVSS
Regarding B5, the dissociation constant Kd was determined as 0.0078 nM in assay [12] and 1.2 nM in assay [13].

B6: anti-IGFBP7 nanobody A03 (VHH)
VHH: B5 chain with P13A, T28S, R51S
notes: Llama nanobody expressed in E. coli as His6-tagged protein; also called A3; not shown: His6 tag
B6: in [14], the “percent blocking of the CD93-IGFBP7 interaction” value (from here on “percent blocking”) is at least 50%.

B7: anti-IGFBP7 nanobody A04 (VHH)
VHH: B5 chain
notes: Llama nanobody expressed in E. coli as His6-tagged protein; also called A4; A4 VHH; not shown: His6 tag
Consider B7, for which, in [14], the “percent blocking” value is at least 50%.

B8: D4-mIgG2a nanobody Fc-fusion (Fc fusion)
chain: VQLQESGGGLVQTGGSLRLSCAASGRSFTFSSYAMGWFRHAPGKEREFLTAITWSGDYTYYTDSVKGRSTISRDNAKNTVYLQLNNLKPEDTAVYYCAAKFSQVSAFFATVSEYEYWGQGTQVTVSS
notes: VHH fused with mIgG2a Fc fragment, expressed in Expi293 cells; also called monospecific D4-mIgG2a; not shown: mouse IgG2a Fc fragment (mIgG2a Fc)
B8: the equilibrium dissociation constant (Kd) in [1] was found to be 1.22 nM; in assay [12], 12.1 nM; in assay [4], 10.2 nM; in assay [13], 1.16 nM; in assay [5] it was 10.2 nM; in [6], 1.22 nM. For the same molecule, the Kd in assay [7] worked out at 1.84 nM. The binding result in assay [2] and in assay [3] was “binds” in each case.

B9: anti-IGFBP7 nanobody D04 (VHH)
VHH: B8 chain
notes: Llama nanobody expressed in E. coli as His6-tagged protein; also called D4; D4 VHH; not shown: His6 tag
Take B9: the binding result in assay [8], in assay [9], in assay [10] and in [11] was “binds” in each case.

B10: A11 mIgG2a (antibody, V domains shown)
VH: VQLQESEGGWSGGGSGSGDFDYEKMANANNGAMTDNADAGKQREFVAAITSGGSINYADSVKGRFTISRDNTKKTVYLQMNSLKPEDTAVYVCNIKAHPNPWGFDNDYWGQGTQVTVSS
As for B10, the Kd stood at 0.0177 nM in assay [12] and 0.0129 nM in [13].

B11: anti-IGFBP7 nanobody A07 (VHH)
VHH: B10 VH with D21G, E23D, N29I, R69T, T72A, Q114P, V115A, V117A
notes: Llama nanobody expressed in E. coli as His6-tagged protein; also called A7; not shown: His6 tag
On to B11, for which, in assay [14], the “percent blocking” value is at least 50%.

B12: anti-IGFBP7 nanobody A11 (VHH)
VHH: B10 VH
notes: Llama nanobody expressed in E. coli as His6-tagged protein; also called A11 VHH; not shown: His6 tag
In the case of B12, the “percent blocking” value in assay [14] is at least 50%.
